Usually koff stands for a measure of how fast the partners let go of each other. A high value points to fast dissociation. A word on the kon: it is the second-order rate constant of association. The low end stands for slow association, the high end for fast association.

Consider two molecules from patent publication US20080292641A1 (MORPHOTEK, published 2008).

Experiment [1] has as its target T1, human GM-CSF overlapping 12-mer peptide #23.
T1 construct: Only 'possibly' recognized by G9
T1 peptide: KENLKDFLLVIP-{cellulose membrane}
The experiment is described as follows: SPOTs peptide membrane, 1 mg/ml purified 10G9.

The target of experiment [2] is T2, HEL (UniProt P00698 19-147). The experiment can be described thus: antigen specific ELISA (subsequent study, data not shown).
T2 sequence (P00698 19-147): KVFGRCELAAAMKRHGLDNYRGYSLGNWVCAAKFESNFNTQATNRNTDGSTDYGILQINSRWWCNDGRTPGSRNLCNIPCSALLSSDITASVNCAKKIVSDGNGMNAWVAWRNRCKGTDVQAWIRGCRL
Experiment [3] deals with T3, SEB (UniProt P01552 28-266).
T3 sequence: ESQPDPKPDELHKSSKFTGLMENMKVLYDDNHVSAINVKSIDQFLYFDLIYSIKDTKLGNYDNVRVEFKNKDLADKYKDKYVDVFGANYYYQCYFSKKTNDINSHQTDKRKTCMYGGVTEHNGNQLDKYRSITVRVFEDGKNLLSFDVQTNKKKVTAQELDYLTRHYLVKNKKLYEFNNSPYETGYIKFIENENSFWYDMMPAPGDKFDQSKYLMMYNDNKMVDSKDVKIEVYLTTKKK
The experiment is described as above.

The target in experiment [4] is T4, human mesothelin (human, UniProt Q13421 296-598, limits assumed).
T4 construct: also called human Mesothilin
T4 sequence (Q13421 other isoform, or with tags, fused parts or gaps limits assumed): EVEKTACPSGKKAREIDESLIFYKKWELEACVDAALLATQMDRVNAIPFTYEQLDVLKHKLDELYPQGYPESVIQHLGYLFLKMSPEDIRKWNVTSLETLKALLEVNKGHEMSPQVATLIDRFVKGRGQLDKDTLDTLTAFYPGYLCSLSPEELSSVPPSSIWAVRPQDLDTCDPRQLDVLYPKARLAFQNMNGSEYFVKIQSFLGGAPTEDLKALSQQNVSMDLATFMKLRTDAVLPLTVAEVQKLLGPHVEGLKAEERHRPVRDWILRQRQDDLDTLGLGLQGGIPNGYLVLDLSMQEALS
Described as above.

Experiment [5] addresses T5, human granulocyte-macrophage colony stimulating factor (GM-CSF) (human, UniProt P04141 18-144).
T5 construct: The assays used recombinant human GM-CSF (in-house, PeproTech, or PE-labeled from R&D Systems); also called hGM-CSF; human GM-CSF
The experiment is described as follows: BIACORE.

The target in experiment [6] is T6, human GM-CSF overlapping 12-mer peptide, SEQ ID NO:37 (human).
T6 construct: also called peptide #14
T6 peptide: YKQGLRGSLTKL-{cellulose membrane}
The experiment is described as follows: SPOT peptide membrane probed with G9, HRP goat anti-human IgG, ECL.

Experiment [7] addresses T7, human GM-CSF overlapping 12-mer peptide, SEQ ID NO:36 (human).
T7 construct: also called peptide #13
T7 peptide: TRLELYKQGLRG-{cellulose membrane}
Described as above.

Experiment [8] concerns the target T8, human GM-CSF overlapping 12-mer peptide, SEQ ID NO:38 (human).
T8 construct: also called peptide #15
T8 peptide: RGSLTKLKGPLT-{cellulose membrane}
The experiment is described as above.

Experiment [9] has as its target T9, human GM-CSF overlapping 12-mer peptide, SEQ ID NO:35 (human).
T9 construct: also called peptide #6
T9 peptide: ARRLLNLSRDTA-{cellulose membrane}
The description is as above.

For experiment [10], the target named is T5, human granulocyte-macrophage colony …. The experiment is described as follows: apparent affinity, method not given.
In a further experiment the target is T10, murine GM-CSF (murine, UniProt P01587 18-141).
T10 construct: also called mGM-CSF
T10 sequence (looked up): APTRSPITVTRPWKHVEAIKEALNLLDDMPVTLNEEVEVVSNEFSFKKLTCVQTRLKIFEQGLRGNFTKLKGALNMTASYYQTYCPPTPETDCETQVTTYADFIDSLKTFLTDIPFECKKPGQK
The experiment can be described thus: antigen panel ELISA, antigen coated on the plate, O.D. 450.

The next experiment addresses h IL-2 (human, UniProt P60568 21-153). The description is as above.
The next experiment has as its target T11, BSA (bovine, UniProt P02769 25-607).
T11 construct: also called bovine serum albumin
The description is as above.

The target in another experiment is T12, h IL-3 (human, UniProt P08700 20-152).
T12 sequence (looked up): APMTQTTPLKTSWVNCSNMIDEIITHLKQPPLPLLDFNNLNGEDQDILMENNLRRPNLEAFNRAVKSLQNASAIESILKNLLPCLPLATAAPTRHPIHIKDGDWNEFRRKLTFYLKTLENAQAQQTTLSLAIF
Described as above.

In a further experiment the target is IL-6 (Homo sapiens (Human), UniProt P05231 30-212). Described as above.
The target in another experiment is T13, hIL-1a (human, UniProt P01583 113-271).
T13 sequence (looked up): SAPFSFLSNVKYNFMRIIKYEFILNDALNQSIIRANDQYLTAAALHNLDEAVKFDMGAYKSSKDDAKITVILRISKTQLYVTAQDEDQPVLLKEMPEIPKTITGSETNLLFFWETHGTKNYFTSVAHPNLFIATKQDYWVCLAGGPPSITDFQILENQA
The experiment is described as above.

The next experiment concerns the target hIL-13 (human, UniProt P35225 35-146, limits assumed). Described as above.
A further experiment concerns the target T14, h IL-4 (human, UniProt P05112 25-153).
T14 sequence (looked up): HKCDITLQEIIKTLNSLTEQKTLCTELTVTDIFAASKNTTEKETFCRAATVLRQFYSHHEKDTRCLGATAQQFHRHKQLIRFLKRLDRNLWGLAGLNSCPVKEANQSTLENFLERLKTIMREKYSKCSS
The description is as above.

In another experiment the target is T15, h IL-5 (human, UniProt P05113 20-134).
T15 sequence (looked up): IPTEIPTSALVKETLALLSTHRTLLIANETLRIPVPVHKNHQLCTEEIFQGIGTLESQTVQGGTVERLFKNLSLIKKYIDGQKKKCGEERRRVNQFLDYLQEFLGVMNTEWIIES
The description is as above.

Experiment [11] addresses T2, HEL. The experiment can be described thus: antigen-specific ELISA (subsequent study, data not shown). (ELISA stands for enzyme-linked immunosorbent assay.)
Experiment [12] deals with T3, SEB. The description is as above.
Experiment [13] has as its target T4, human mesothelin. The description is as above.

Where “and” joins values, the source holds several entries; their conditions need not be identical. Equal values may be shown once. Where no end group is shown, it is not given here. cellulose membrane = derivatized cellulose membrane (SPOTs) solid support, attached to the peptide C-terminus

T5 sequence (P04141 18-144): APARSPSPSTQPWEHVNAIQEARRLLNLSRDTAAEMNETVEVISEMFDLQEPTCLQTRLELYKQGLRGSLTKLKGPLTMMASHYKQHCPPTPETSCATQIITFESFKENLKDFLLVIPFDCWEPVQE
Sequence of h IL-2 (P60568 21-153 limits assumed): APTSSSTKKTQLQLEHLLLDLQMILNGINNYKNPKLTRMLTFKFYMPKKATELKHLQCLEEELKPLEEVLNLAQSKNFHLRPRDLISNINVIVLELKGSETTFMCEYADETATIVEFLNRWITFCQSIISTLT
T11 sequence (P02769 25-607 limits assumed): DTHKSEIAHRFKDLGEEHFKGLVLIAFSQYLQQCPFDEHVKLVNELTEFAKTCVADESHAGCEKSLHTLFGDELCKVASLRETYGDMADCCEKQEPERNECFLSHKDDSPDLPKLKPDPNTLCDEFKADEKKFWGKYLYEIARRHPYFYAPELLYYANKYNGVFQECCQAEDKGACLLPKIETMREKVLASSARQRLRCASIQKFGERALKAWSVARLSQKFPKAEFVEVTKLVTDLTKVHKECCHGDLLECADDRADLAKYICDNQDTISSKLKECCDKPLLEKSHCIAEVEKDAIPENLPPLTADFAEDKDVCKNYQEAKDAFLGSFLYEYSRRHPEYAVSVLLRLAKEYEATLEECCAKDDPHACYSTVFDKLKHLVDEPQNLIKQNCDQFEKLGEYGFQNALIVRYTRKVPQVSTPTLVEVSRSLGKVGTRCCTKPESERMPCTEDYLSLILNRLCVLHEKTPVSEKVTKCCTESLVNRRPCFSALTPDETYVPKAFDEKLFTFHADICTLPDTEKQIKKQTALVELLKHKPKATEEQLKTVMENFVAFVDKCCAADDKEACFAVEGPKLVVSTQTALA
Sequence of hIL-13 (P35225 35-146 limits assumed): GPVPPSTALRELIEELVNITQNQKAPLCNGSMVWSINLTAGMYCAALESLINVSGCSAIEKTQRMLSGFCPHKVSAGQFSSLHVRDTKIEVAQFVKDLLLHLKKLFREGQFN

B1: anti-GM-CSF human IgG1 monoclonal antibody G9 (antibody, V domains shown)
VH: EVQLVESGGGLVQPGGSLRLSCAASGFTFSRHWMHWLRQVPGKGPVWVSRINGAGTSITYADSVRGRFTISRDNANNTLFLQMNSLRADDTALYFCARANSVWFRGLFDYWGQGTPVTVSS
VL: EIVLTQSPVTLSVSPGERVTLSCRASQSVSTNLAWYQQKLGQGPRLLIYGASTRATDIPARFSGSGSETEFTLTISSLQSEDFAVYYCQQYDKWPDTFGQGTKLEIKR
notes: Fully human IgG1 kappa made by a hybridoma from B cells of a PAP patient; also called 10G9; 10G9.1
For the molecule B1, the binding result in experiment [1] is recorded as “binds”; in the experiment with HEL [2], “no binding”; with SEB [3], “no binding”; with human mesothelin [4], “no binding”; in experiment [6], “binds”; in experiment [7], “binds”. For the same molecule, the binding result in experiment [8] and in [9] was “binds” each time. Further, the Kd is 0.0109 nM and 0.011 nM to 0.017 nM (2×) in [5]; 0.014 nM in [10]. Besides, the koff in experiment [5] turned out to be 9.27e-05 s⁻¹. The molecule further returned a kon in experiment [5] of 8.47e+06 M⁻¹ s⁻¹.

B2: anti-GM-CSF human IgG1 monoclonal antibody E10 (antibody, V domains shown)
VH: QVQLEESGGGVVQPGRSLRLSCAASGFTFTNYGMHWVRQAPGKGLEWLALISYDGNRQYYADSVKGRFTVSRDNPNNTLHLEMKSLRAEDSAIYYCARGAGVLLWFGDLSWFDPWGQGTLVTVSS
VL: DIQMTQSPSNLSASVGDRVTITCRASQNINTWLAWYQHKPGKPPKLRIYQASTLESGVPSRFSGSGSGTIFTLTISSLQPDDFGTYYCQQNNSYPYTFGQGTKLEINR
notes: Fully human IgG1 kappa made by a hybridoma from B cells of a PAP patient; also called 4E10; E10.20
Take B2: the binding result with murine GM-CSF, with h IL-2, with BSA, in the experiment with h IL-3, in the experiment with IL-6 and with hIL-1a was “no binding” in each case. The binding result in the experiment with hIL-13, with h IL-4, with h IL-5, with HEL [11], with SEB [12] and with human mesothelin [13] was “no binding” each time. Also, the Kd in experiment [5] was 0.87 nM and ~0.87 nM. In addition, in experiment [5], the koff came to 2.16e-05 s⁻¹. In [5], this molecule had a kon of 24700 M⁻¹ s⁻¹.
